Earlier results on 1 substance are cited in article PMC6783463.

For this data set, the target named is PTH (15-34) 15-34 (Homo sapiens) (UniProt P01270). The following applies: cited from earlier work.
Chain of UniProt P01270 (P01270 15-34): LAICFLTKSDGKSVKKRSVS

On to PTH1R ECD (from UniProt Q03431), for which the Kd was 1000 nM.
